Assay results taken from paper PMC5268738, “A sequential multi-target Mps1 phosphorylation cascade promotes spindle checkpoint signaling” (eLife, 2017).
Each block holds one substance with its values, some of them ahead of it.

What was measured:
[1] = biological target: Mad1 CTD (UniProt Q9Y6D9); assay: ITC; settings: reference: pT461 peptide; sites S459
[2] = biological target: Mad1 CTD (UniProt Q9Y6D9); assay: peptide-bead pull-down, Coomassie
[3] = biological target: Cdc20 Cdc20N, 1-170 (UniProt Q12834); assay: Ni2+ bead pull-down, anti-Mad1 blot; settings: reference: Mad1E–Mad2 wild type; sites T716
[4] = biological target: scMad1 CTD (UniProt P40957); assay: ITC; settings: reference: pT455 peptide; sites T453
[5] = biological target: scMad1 CTD (UniProt P40957); assay: peptide-bead pull-down, Coomassie

binding against the reference [1]: stronger | binding against the reference ([2]; reference: pT461 peptide, sites S459): stronger
Substance: Bub1 455-477 (from UniProt O43683) pS459-pT461 peptide

binding against the reference ([2]; reference: pS459-pT461 peptide, sites T464): weaker
Substance: Bub1 455-477 (from UniProt O43683) pS459-pT461-pT464 peptide

binding against the reference [3]: weaker
Substance: Mad1 Mad1E (MIM + CTD) (from UniProt Q9Y6D9) Mad1E T716A

binding against the reference [4]: same | binding against the reference ([5]; reference: pT453 peptide, sites T455): stronger | binding against the reference ([5]; reference: pT455 peptide, sites T453): same
Substance: scBub1 449-473 (from UniProt P41695) pT453-pT455 peptide
